What was measured:
[1] = target: T1, Flag-USP21 WT (ubiquitin-specific peptidase 21) (human, UniProt Q9UK80 1-565); assay: pull-down; bacterially expressed GST or GST-FOXD1 immobilised (GST Protein Interaction Pull-Down Kit, Thermo Scientific), incubated with Flag-USP21 WT or C221A from HEK293T cells; analysed by Coomassie Brilliant Blue; conditions: both partners purified
T1 construct: ubiquitin-specific peptidase 21 (USP21), wild type; overexpression plasmid bought from GeneChem; source: HEK293T, transfected, in lysate (co-IP); for the GST pull-down 'lysed from HEK293T cells' (methods), 'purified recombinant protein' (results)
T1 sequence (looked up): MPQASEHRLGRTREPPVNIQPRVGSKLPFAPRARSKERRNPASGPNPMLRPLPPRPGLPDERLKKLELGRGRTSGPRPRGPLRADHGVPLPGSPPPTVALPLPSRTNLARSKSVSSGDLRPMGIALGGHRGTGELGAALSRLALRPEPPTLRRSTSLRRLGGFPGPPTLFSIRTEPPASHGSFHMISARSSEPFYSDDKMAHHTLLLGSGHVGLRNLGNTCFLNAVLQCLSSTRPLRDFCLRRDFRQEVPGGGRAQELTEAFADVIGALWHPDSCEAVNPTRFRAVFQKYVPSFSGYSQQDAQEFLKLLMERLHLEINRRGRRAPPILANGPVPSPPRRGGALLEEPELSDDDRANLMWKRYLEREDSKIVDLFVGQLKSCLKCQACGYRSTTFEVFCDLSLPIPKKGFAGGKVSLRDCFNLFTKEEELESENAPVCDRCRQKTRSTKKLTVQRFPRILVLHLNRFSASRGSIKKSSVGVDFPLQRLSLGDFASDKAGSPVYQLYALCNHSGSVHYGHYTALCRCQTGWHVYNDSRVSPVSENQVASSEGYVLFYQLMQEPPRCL

[2] = target: T2, Flag-USP21 C221A (catalytically inactive mutant) (human, UniProt Q9UK80 1-565, C221A); assay: as above; conditions: both partners purified
T2 construct: also called C221A mutant; source: HEK293T, transfected, in lysate (co-IP); for the GST pull-down 'lysed from HEK293T cells' (methods), 'purified recombinant protein' (results)
T2 sequence (looked up): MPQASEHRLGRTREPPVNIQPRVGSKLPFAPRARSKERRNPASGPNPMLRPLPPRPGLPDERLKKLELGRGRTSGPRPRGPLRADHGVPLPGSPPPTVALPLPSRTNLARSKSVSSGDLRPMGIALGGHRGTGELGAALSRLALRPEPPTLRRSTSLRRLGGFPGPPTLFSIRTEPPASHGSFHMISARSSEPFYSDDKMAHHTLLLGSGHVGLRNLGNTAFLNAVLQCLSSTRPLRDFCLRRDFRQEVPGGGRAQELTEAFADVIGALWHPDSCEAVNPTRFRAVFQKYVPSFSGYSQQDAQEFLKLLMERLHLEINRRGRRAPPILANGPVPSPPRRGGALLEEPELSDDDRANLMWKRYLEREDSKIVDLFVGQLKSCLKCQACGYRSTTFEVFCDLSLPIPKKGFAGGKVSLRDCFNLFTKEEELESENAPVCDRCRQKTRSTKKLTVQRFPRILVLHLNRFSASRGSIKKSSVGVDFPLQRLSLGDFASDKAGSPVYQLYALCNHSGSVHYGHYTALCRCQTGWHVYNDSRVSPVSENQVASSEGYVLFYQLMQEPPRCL

B1: GST-FOXD1 (natural protein, UniProt Q16676 1-465, looked up)
chain: MTLSTEMSDASGLAEETDIDVVGEGEDEEDEEEEDDDEGGGGGPRLAVPAQRRRRRRSYAGEDELEDLEEEEDDDDILLAPPAGGSPAPPGPAPAAGAGAGGGGGGGGAGGGGSAGSGAKNPLVKPPYSYIALITMAILQSPKKRLTLSEICEFISGRFPYYREKFPAWQNSIRHNLSLNDCFVKIPREPGNPGKGNYWTLDPESADMFDNGSFLRRRKRFKRQPLLPPNAAAAESLLLRGAGAAGGAGDPAAAAALFPPAPPPPPHAYGYGPYGCGYGLQLPPYAPPSALFAAAAAAAAAAAFHPHSPPPPPPPHGAAAELARTAFGYRPHPLGAALPGPLPASAAKAGGPGASALARSPFSIESIIGGSLGPAAAAAAAAQAAAAAQASPSPSPVAAPPAPGSSGGGCAAQAAVGPAAALTRSLVAAAAAAASSVSSSAALGTLHQGTALSSVENFTARISNC
notes: Forkhead box D1 (FOXD1) fused to GST; also called immobilized GST-FOXD1; purified GST-FOXD1; source: bacterially expressed; 'purified' (results)
B1: binds [1]; binds [2].

Reference: publication PMC9381540, “USP21 promotes self-renewal and tumorigenicity of mesenchymal glioblastoma stem cells by deubiquitinating and stabilizing FOXD1” (Cell Death & Disease, 2022)
